Results taken from PMC1525162 (BMC Pharmacology, 2006).
Entries after “also recorded” stand apart in the source; their conditions may differ. Values belong to the molecule of their own block, whether it stands above or below them. Bridge positions count the residues as written; N and C are the ends. Ends that are not written are not given here. Peptide text beside a SMILES is read from it.

Assays:
[1] = target: wild type CLR-RAMP1 heterodimer (HEK293T-RAMP1 membranes) (Homo sapiens, UniProt O60894+Q16602); assay: Competition radioligand binding, wild type CLR; details: compared to Ki of CGRP
Experimental: A crude cell membrane preparation was prepared as previously described. Briefly, HEK293T-RAMP1 membranes were prepared by scraping and transferring cells to a 50 mL conical tube using cold HBSS followed with two washings by centrifugation at 1000 × g using cold HBSS. The intact cell pellet was resuspended in 10 mL of 0.25 M sucrose containing a protease inhibitor cocktail consisting of 10μg/mL benzamidine, 10μg/mL leupeptin, and 20μg/mL phenylmethysulfonylfluoride. The cells were disrupted by freezing followed by Dounce homogenization of the thawed suspension using 20 strokes from a loose fitting (B) pestle. This mixture was then centrifuged at 1260 × g for 5 min at 4°C. Buffer A (20 mM HEPES, pH 7.5, 1.4 mM EGTA, 12.5 mM MgCl2, 10μg/mL benzamidine, 10μg/mL leupeptin, and 20μg/mL phenylmethysulfonylfluoride) was added to the supernatant and centrifuged again at 30,000 × g for 15 min at 4°C. The resultant pellet was kept, resuspended in buffer A then centrifuged once more at 30,000 × g for 15 min at 4°C. […] Protein concentrations were measured using the method of Bradford.
The radioligand binding protocol used for this study was performed as previously described. […] Amounts of total and non-specific radiolabel bound to cell membranes were calculated from radioactive counts remaining on the glass fiber filters.

[2] = system: wild type and L24A, L34A, L24A,L34A CLR-RAMP1 (HEK293T-RAMP1 cells); assay: cAMP generation, wild type and leucine mutant CLRs compared
[3] = target: wild type CLR-RAMP1 (transiently transfected HEK293T-RAMP1 cells) (Homo sapiens, UniProt O60894+Q16602); assay: cAMP generation, wild type CLR; format: cell-based
[4] = system: L24A, L34A and L24A,L34A CLR-RAMP1 heterodimers versus wild type; assay: Competition/saturation binding, leucine mutant CLRs compared with wild type; parameters: species or system human; details: L34A, L24A,L34A vs wild type CLR
Experimental: A crude cell membrane preparation was prepared as previously described. Briefly, HEK293T-RAMP1 membranes were prepared by scraping and transferring cells to a 50 mL conical tube using cold HBSS followed with two washings by centrifugation at 1000 × g using cold HBSS. The intact cell pellet was resuspended in 10 mL of 0.25 M sucrose containing a protease inhibitor cocktail consisting of 10μg/mL benzamidine, 10μg/mL leupeptin, and 20μg/mL phenylmethysulfonylfluoride. The cells were disrupted by freezing followed by Dounce homogenization of the thawed suspension using 20 strokes from a loose fitting (B) pestle. This mixture was then centrifuged at 1260 × g for 5 min at 4°C. Buffer A (20 mM HEPES, pH 7.5, 1.4 mM EGTA, 12.5 mM MgCl2, 10μg/mL benzamidine, 10μg/mL leupeptin, and 20μg/mL phenylmethysulfonylfluoride) was added to the supernatant and centrifuged again at 30,000 × g for 15 min at 4°C. The resultant pellet was kept, resuspended in buffer A then centrifuged once more at 30,000 × g for 15 min at 4°C. The final crude membrane pellet was resuspended in buffer A containing 10% glycerol and stored in aliquots at -70°C until used for radioligand binding. Protein concentrations were measured using the method of Bradford.
The radioligand binding protocol used for this study was performed as previously described. […] Binding was stopped by filtering the membranes though Whatman GF/C glass fiber filters, followed by 5 – 5 mL washes with cold buffer B (20 mM HEPES, pH 7.5, 1.4 mM EGTA, 12.5 mM MgCl2) to remove any unbound drug. Amounts of total and non-specific radiolabel bound to cell membranes were calculated from radioactive counts remaining on the glass fiber filters.

CGRP receptor = details: cited from earlier work
Description: Briefly, this 37 amino acid neuropeptide can be divided into two distinct domains based upon its binding and agonistic properties for the receptor. […] Specifically, loss of the disulfide bridge connecting amino acids 2 and 7 negates all biological activity of the endogenous neuropeptide.

[5] = target: CLR-RAMP1 heterodimer with the L24A CLR mutant (UniProt Q16602); assay: radioligand binding; saturation binding: increasing [125I-Tyr]CGRP(8–37) on crude membranes of transiently transfected HEK293T-RAMP1 cells, 37°C, buffer A (20 mM HEPES pH 7.5, […] EGTA, 12.5 mM MgCl2, protease inhibitors) plus 0.1% BSA, 1 μM CGRP for non-specific binding, filtration on GF/C filters
[6] = target: CLR-RAMP1 heterodimer, wild type calcitonin-like receptor (CLR) with receptor-activity-modifying protein-1 (RAMP1) (UniProt Q16602); assay: as above
[7] = target: CLR-RAMP1 heterodimer with the L34A CLR mutant (UniProt Q16602); assay: as above
[8] = target: CLR-RAMP1 heterodimer with the L24A,L34A CLR double mutant (UniProt Q16602); assay: as above
[9] = target: T1, CLR-RAMP1 heterodimer, wild type calcitonin-like receptor (CLR) with receptor-activity-modifying protein-1 (RAMP1), Q16602; assay: radioligand binding; competition: increasing unlabeled peptide against specific [125I-Tyr]CGRP(8–37) binding on crude membranes of transiently transfected HEK293T-RAMP1 cells, same buffer as the saturation binding; Ki from IC50 by the method of Cheng and Prusoff
T1 chain 1: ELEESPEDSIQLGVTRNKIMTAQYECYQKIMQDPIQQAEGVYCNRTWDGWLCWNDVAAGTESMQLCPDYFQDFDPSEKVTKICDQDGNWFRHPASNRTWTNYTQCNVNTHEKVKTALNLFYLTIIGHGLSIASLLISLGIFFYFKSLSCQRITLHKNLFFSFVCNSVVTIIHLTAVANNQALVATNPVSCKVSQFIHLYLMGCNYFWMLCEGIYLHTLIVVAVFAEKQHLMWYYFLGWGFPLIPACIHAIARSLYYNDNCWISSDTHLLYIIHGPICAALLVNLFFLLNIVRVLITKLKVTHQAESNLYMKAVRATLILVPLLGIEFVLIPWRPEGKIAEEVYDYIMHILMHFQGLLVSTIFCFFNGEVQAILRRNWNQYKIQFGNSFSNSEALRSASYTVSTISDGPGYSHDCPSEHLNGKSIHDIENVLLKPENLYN
T1 chain 2: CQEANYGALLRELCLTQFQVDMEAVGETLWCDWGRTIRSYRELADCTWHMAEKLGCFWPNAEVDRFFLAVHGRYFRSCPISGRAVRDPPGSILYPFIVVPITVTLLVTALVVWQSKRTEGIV

[10] = target: T2, CLR-RAMP1 heterodimer with the L34A CLR mutant, Q16602; assay: as above
T2 chain 1: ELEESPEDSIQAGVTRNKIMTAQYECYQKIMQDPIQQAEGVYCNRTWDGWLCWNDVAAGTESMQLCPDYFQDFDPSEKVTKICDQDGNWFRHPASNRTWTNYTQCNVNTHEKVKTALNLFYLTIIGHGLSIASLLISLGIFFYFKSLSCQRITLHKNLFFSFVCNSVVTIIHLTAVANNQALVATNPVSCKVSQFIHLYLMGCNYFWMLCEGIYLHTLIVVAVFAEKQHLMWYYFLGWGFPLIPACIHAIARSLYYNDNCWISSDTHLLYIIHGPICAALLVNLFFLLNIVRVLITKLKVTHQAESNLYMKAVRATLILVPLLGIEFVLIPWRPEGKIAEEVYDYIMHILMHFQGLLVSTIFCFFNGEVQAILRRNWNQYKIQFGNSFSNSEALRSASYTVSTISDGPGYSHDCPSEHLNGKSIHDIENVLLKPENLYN
T2 chain 2: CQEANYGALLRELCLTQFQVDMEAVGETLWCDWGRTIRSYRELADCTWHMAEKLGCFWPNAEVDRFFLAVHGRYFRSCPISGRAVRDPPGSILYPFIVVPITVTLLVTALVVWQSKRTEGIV

[11] = target: T3, CLR-RAMP1 heterodimer with the L24A CLR mutant, Q16602; assay: as above
T3 chain 1: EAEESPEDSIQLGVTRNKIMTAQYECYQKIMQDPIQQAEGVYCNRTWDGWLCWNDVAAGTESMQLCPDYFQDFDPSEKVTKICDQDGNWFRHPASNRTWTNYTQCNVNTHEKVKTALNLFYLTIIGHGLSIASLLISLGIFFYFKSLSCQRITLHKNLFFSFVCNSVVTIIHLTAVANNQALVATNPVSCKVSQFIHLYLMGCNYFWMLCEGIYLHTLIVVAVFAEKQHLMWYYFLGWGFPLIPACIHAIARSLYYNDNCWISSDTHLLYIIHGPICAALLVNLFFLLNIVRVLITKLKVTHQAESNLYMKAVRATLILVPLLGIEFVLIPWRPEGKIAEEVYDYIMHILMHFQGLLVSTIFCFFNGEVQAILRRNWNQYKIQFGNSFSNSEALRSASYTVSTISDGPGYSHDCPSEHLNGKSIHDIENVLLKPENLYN
T3 chain 2: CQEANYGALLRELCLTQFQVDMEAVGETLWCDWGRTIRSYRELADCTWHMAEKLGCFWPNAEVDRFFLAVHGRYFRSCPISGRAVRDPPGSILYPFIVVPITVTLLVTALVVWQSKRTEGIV

[12] = target: T4, CLR-RAMP1 heterodimer with the L24A,L34A CLR double mutant, Q16602; assay: as above
T4 chain 1: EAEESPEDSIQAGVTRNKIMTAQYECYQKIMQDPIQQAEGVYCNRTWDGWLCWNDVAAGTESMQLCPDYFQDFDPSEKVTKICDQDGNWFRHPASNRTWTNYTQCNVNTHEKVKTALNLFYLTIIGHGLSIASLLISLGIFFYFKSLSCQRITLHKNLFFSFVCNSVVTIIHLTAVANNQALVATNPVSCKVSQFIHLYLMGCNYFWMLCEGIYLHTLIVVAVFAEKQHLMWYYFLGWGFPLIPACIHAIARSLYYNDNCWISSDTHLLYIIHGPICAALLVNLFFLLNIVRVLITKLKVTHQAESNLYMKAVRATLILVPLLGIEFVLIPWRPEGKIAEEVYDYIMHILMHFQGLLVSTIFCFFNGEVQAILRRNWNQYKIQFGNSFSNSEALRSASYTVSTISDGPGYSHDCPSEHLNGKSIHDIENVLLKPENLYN
T4 chain 2: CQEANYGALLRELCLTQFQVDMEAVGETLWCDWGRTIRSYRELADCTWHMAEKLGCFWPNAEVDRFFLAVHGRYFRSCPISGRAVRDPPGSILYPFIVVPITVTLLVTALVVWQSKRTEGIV

[13] = target: T1, CLR-RAMP1 heterodimer, wild type …
[14] = target: T2, CLR-RAMP1 heterodimer with the L34A CLR …
[15] = target: T3, CLR-RAMP1 heterodimer with the L24A CLR …
[16] = target: T4, CLR-RAMP1 heterodimer with the …

affinity for wild type CLR compared with CGRP [1]: significant loss of CGRP(1–19) affinity
maximal cAMP response ([3]; CGRP(1–36) compared with CGRP, CGRP(1–19) compared with CGRP(1–36) and CGRP): appreciably less
Molecule: CC(C)C[C@H](NC(=O)CNC(=O)[C@H](C)NC(=O)[C@H](CC(C)C)NC(=O)[C@H](CCCNC(=N)N)NC(=O)[C@H](Cc1c[nH]cn1)NC(=O)[C@@H](NC(=O)[C@@H](NC(=O)[C@@H]1CSSC[C@H](NC(=O)[C@H](C)N)C(=O)N[C@@H](CC(=O)O)C(=O)N[C@@H]([C@@H](C)O)C(=O)N[C@@H](C)C(=O)N[C@@H]([C@@H](C)O)C(=O)N1)C(C)C)[C@@H](C)O)C(=O)N[C@@H](CC(C)C)C(=O)N[C@@H](CO)C(=O)N[C@@H](CCCNC(=N)N)C(=O)N[C@@H](CO)C(=O)O [CGRP(1–19)] (H-ACDTATCVTHRLAGLLSRS-OH; disulfide 2-7 (inferred); N-terminus assumed)
cAMP potency at leucine mutants compared with wild type ([2]; L24A, L34A, L24A,L34A vs wild type CLR): no different; also recorded: no significant potency differences
cAMP potency compared with CGRP, wild type ([3]; compared to CGRP): considerably less; also recorded: significantly less
affinity at leucine mutants compared with wild type [4]: analogous to values calculated for all leucine CLR mutations

Molecule: CGRP(8–37)
CGRP receptor affinity and activity (CGRP receptor; N-terminal truncated peptide): effective CGRP receptor antagonist having a high affinity for the receptor but devoid of any biological activity in itself
antagonism of cAMP response to CGRP(1–36) ([2]; 1μM CGRP(8–37) preincubated 30 min before 10μM CGRP(1–36), wild type and leucine CLR mutants): abolished the activity of 10μM CGRP(1–36); also recorded: blocked to basal levels

Kd [5]: 0.009 µM
Kd [6]: 0.0009 µM
Kd [7]: 0.009 µM
Kd [8]: 0.009 µM
Molecule: [125I-Tyr]CGRP(8–37) (peptide)

Molecule: des-F37-CGRP: CGRP with deletion of the C-terminal phenylalanine at position 37 (ACDTATCVTHRLAGLLSRSGGVVKNNFVPTNVGSKA-NH2; disulfide 2-7 (inferred); ends not checked; UniProt P06881 83-119, looked up, variant F37*)
affinity for native receptor compared with endogenous neuropeptide (CGRP receptor; not due to disruption of ligand structure): affinity loss

Ki [9]: > 10 µM
Ki [10]: > 10 µM
Ki [11]: > 10 µM
Ki [12]: > 10 µM
EC50 of cAMP generation in transiently transfected HEK293T-RAMP1 cells [13]: 2.1 µM
EC50 of cAMP generation in transiently transfected HEK293T-RAMP1 cells [14]: 2.2 µM
EC50 of cAMP generation in transiently transfected HEK293T-RAMP1 cells [15]: 2.4 µM
EC50 of cAMP generation in transiently transfected HEK293T-RAMP1 cells [16]: 1.6 µM
Molecule: ACDTATCVTHRLAGLLSRS (modifications not checked) [CGRP(1–19)]
